According to article PMC10973816:

B1: mouse mGluR6 (metabotropic glutamate receptor 6), wild type, complex N-glycosylated form (upper dimer band, band C) [modified: complex N-glycosylation (Endo H-resistant, PNGase F-sensitive); N-glycosylation sites N290, N445 … (parent)
chain 1: AGSVRLAGGLTLGGLFPVHARGAAGRACGTLKKEQGVHRLEAMLYALDRINADPELLPGVRLGARLLDTCSRDTYALEQALSFVQALIRGRGDGEEASVRCPGGVPPLRAAPPERVVAVVGASASSVSIMVANVLRLFAIPQISYASTAPELSDSTRYDFFSRVVPPDSYQAQAMVDIVRALGWNYVSTLASEGNYGESGVEAFVQISREAGGVCIAQSIKIPREPKPGEFHKVIRRLMETPNARGIIIFANEDDIRRVLEATRQANLTGHFLWVGSDSWGSKISPILNLEEEAVGAITILPKRASIDGFDQYFMTRSLENNRRNIWFAEFWEENFNCKLTSSGGQSDDSTRKCTGEERIGQDSTYEQEGKVQFVIDAVYAIAHALHSMHQALCPGHTGLCPAMEPTDGRTLLHYIRAVRFNGSAGTPVMFNENGDAPGRYDIFQYQATNGSASSGGYQAVGQWAEALRLDMEALQWSGDPHEVPPSQCSLPCGPGERKKMVKGVPCCWHCEACDGYRFQVDEFTCEACPGHMRPTPNHTGCRPTPVVRLTWSSPWAALPLLLAVLGIMATTTIIATFMRHNDTPIVRASGRELSYVLLTGIFLIYAITFLMVAEPCAAVCASRRLLLGLGTTLSYSALLTKTNRIYRIFEQGKRSVTPPPFISPTSQLVITFGLTSLQVVGVIAWLGAQPPHSVIDYEEQRTVDPEQARGVLKCDMSDLSLIGCLGYSLLLMVTCTVYAIKARGVPETFNEAKPIGFTMYTTCIIWLAFVPIFFGTAQSAEKIYIQTTTLTVSLSLSASVSLGMLYVPKTYVILFHPEQNVQKRKRSLKKTSTMAAPPKSENSEDAK
chain 2: QGDCWLIEGDKGFVWLAICSQNQPPYEAIPQQINNTIVDLRLNENRIRSVQYASLSRFGNLTYLNLTKNEIGYIEDGAFSGQFNLQVLQLGYNRLRNLTEGMLRGLSKLEYLYLQANLIEVVMASAFWECPNIVNIDLSMNRIQQLGSGTFAGLTKLSVCEIYSNPFYCSCELLGFLRWLAAFTNATQTHDRVQCESPPVYAGYFLLGQGRHGHQRSILSKLQSVCTEGSYTAEVLGPPRPVPGRSQPGHSPPPPPPEPSDMPCADDECFSGDGTTPLVILTTLVPQTEARPSMKVKQLTQNSATIMVQLPSPFNRMYTLEQYNNSKSFTVSKLTQPQEEIRLTNLYTLTNYTYCVVSTSSGTHHNHTCLTICLPKPPSPPGPVPSPSTATHY
B2: mouse mGluR6 (metabotropic glutamate receptor 6), wild type, complex N-glycosylated form (upper dimer band, band C) [modified: complex N-glycosylation (Endo H-resistant, PNGase F-sensitive); N-glycosylation sites N290, N445 … (parent)
chain 1: B1 chain 1
chain 2: DCWLIEGDKGYVWLAICSQNQPPYETIPQHINSTVHDLRLNENKLKAVLYSSLNRFGNLTDLNLTKNEISYIEDGAFLGQTSLQVLQLGYNRLSNLTEGMLRGMSRLQFLFVQHNLIEVVTPTAFSECPSLISIDLSSNRLSRLDGATFASLASLMVCELAGNPFNCECDLFGFLAWLVVFNNVTKNYDRLQCESPREFAGYPLLVPRPYHSLNAITVLQAKCRNGSMPARPVSHPTPYSTDAQREPDENSGFNPDEILSVEPPASSTTDASAGPAIKLHQVTFTSATLVVIIPHPYSKMYVLVQYNNSYFSDVMTLKNKKEIVTLDKLRAHTEYTFCVTSLRNSRRFNHTCLTFTTRDLVPGDLAPSTSTTTHY

Variants of: B1
Assay: pull-down
Settings: with ELFN1 extracellular domain fused to human Fc [mouse]; parent: 1; read off a plot

Point of comparison: chain 1 N267Q, ratio to parent 0.59. Against it:
- chain 1 N450Q — higher, 0.6
- chain 1 N422Q — lower, 0.05
- chain 1 N538Q — lower, 0.13

Same assay, conditions: with ELFN1 extracellular domain fused to human Fc [mouse]; five times more transfected cells were used for 4Q; parent: 1; read off a plot

chain 1 N267Q N422Q N450Q N538Q showed a ratio to parent of 0.04.

Variants of: B2
Assay: pull-down
Settings: with ELFN2 extracellular domain fused to human Fc [mouse]; parent: 1; read off a plot

Point of comparison: chain 1 N422Q, ratio to parent 0.04. Against it:
- chain 1 N450Q — higher, 0.32
- chain 1 N267Q — higher, 0.52
- chain 1 N538Q — higher, 0.32
